Experimental data: patent publication US20200292534A1 (PROMEGA, published 2020)
Starred links: 1 amine or outer side, 2 acyl side, 3 side chain; linkers in the order of their positions; H or OH if unused. No end group written: not given here. NH(CH2)3(OCH2CH2)2O(CH2)3NH = C(CN[*:1])COCCOCCOCCCN[*:2]

Legend:
NLpoly11S [1] = molecular target: T1, NLpoly11S; assay: luminescence of purified NLpoly11S in NanoGlo with peptide
T1 construct: Non-luminescent polypeptide (engineered large fragment of NanoLuc); Used as E. coli clarified lysate or as purified protein; also called 11S (12 - A51T); LSP 11S
T1 chain: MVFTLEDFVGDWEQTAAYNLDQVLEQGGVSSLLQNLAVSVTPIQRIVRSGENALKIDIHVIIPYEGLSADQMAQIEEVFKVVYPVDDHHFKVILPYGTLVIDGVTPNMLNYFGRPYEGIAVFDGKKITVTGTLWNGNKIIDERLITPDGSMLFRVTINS

NLpoly WT [2] = molecular target: T2, NLpoly WT; assay: BRET wavelength scan, NLpoly WT lysate + peptide
T2 construct: also called WT NLpoly
T2 chain: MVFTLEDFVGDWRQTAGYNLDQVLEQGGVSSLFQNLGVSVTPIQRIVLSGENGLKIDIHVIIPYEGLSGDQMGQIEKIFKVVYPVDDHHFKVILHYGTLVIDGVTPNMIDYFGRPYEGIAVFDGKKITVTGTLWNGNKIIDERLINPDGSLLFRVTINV

NLpoly11S [3] = molecular target: T1, NLpoly11S; assay: spectral scan of luminescence, purified NLpoly11S + peptide
NLpoly11S [4] = molecular target: T1, NLpoly11S; assay: luminescence complementation titration at several furimazine concentrations, 1-site fit
NLpoly WT [5] = molecular target: T2, NLpoly WT; assay: luminescence complementation titration (E. coli lysate NLpoly, synthetic NLpep), one site-specific binding fit
NLpoly11S [6] = molecular target: T1, NLpoly11S; assay: luminescence complementation titration on purified NLPoly11S, 1 site specific binding fit
NLpoly11S [7] = molecular target: T1, NLpoly11S; assay: luminescence complementation titration, one-site specific binding fit

B1: GWALFKK (peptide)
peptide: GWALFKK
notes: Dark peptide; also called NLpep162 (w/o Met)
binding result (NLpoly11S [1]): binds

B2: PBI-4877 (peptide)
peptide: GVTGWRLCERILA-{NH(CH2)3(OCH2CH2)2O(CH2)3NH-6‑tetramethylrhodamine}
notes: also called NLpep1-TMR; NLPep1-fluorophore
binding result (NLpoly WT [2]): binds | binding result (NLpoly11S [3]): binds

B3: NLpep1 (peptide)
peptide: GVTGWRLCERILA
notes: also called NLpepWT; NLPep1 (WT)
binding result (NLpoly11S [4]): binds | Kd (NLpoly WT [5]): ~10 µM

B4: Dabcyl-GWALFKK (peptide)
peptide: GWALFKK
modifications: not fully specified (N-terminus); printed as Dabcyl-GWALFKK
notes: Quencher peptide
binding result (NLpoly11S [1]): binds

B5: NLpep114 (peptide)
peptide: VTGYRLFEEIL
notes: Synthetic; also called NLpep114 (w/o Met)
binding result (NLpoly11S [6]): binds

B6: array2.52 (peptide)
peptide: Ac-VTGYRLFEEIL-NH2
Kd (NLpoly11S [7]): 104 µM
